Common to all, as to details: remark: other sources report otherwise
For one test, the target named is M3 (h) (human), P20309. As to the kind of experiment: radioligand displacement, compound at 10 µM.
For a further test, the target named is T1, M1 (h) (human), P11229.
T1 chain: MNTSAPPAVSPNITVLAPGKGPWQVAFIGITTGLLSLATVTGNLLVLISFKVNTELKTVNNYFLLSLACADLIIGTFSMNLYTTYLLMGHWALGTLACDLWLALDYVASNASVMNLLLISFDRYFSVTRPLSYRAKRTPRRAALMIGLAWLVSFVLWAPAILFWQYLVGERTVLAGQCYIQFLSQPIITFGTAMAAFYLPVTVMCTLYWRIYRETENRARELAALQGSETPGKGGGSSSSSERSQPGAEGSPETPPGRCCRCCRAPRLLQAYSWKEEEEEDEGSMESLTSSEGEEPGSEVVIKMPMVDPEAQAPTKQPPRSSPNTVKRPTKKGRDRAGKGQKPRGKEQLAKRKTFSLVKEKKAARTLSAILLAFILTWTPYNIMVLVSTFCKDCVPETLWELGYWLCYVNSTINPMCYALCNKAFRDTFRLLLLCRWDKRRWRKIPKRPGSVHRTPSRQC
As to the kind of experiment: radioligand displacement, compound at 10 µM.

A further test concerns the target H1 (h) (human), P35367. As to the kind of experiment: radioligand displacement, compound at 10 µM.
A further test deals with T2, AR (h) (human), P10275.
T2 chain: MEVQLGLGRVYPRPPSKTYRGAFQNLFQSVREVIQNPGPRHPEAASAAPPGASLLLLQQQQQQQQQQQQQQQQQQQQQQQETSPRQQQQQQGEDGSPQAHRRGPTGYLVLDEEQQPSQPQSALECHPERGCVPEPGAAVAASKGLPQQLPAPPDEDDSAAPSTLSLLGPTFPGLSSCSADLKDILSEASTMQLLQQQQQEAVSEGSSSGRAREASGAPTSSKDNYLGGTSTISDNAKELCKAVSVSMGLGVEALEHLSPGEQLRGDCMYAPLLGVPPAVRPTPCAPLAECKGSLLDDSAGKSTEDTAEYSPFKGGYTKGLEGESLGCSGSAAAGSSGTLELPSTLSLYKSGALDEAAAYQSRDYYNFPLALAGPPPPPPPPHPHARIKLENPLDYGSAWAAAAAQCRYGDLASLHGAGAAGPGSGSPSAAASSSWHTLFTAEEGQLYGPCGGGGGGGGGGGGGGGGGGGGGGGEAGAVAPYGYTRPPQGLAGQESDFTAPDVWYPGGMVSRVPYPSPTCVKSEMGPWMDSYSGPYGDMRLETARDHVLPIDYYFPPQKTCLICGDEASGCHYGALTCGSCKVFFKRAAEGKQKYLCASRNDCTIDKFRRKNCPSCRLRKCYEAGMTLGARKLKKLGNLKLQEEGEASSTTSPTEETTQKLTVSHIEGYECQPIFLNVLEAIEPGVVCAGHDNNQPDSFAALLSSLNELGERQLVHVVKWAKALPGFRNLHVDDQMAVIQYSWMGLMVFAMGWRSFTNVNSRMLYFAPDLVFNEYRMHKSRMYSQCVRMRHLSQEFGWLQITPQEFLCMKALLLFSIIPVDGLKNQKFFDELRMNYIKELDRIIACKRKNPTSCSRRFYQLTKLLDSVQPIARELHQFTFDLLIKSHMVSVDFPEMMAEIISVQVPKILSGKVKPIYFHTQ
As to the kind of experiment: radioligand displacement, compound at 10 µM.

In the next test the target is T3, ETA (h) (human), P25101.
T3 chain: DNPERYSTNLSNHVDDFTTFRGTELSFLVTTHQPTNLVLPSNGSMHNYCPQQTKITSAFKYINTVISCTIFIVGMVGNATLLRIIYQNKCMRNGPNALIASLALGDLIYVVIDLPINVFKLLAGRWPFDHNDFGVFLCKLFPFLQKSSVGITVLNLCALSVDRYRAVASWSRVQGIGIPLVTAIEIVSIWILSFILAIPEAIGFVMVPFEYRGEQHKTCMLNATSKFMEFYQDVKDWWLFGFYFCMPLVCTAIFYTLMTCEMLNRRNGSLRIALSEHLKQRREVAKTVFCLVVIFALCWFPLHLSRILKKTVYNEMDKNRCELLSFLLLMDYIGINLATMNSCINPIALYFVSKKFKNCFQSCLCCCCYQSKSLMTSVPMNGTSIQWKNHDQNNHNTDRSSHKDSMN
As to the kind of experiment: radioligand displacement, compound at 10 µM.

The target in test [1] is T4, alpha 2A (h) (human), P08913.
T4 chain: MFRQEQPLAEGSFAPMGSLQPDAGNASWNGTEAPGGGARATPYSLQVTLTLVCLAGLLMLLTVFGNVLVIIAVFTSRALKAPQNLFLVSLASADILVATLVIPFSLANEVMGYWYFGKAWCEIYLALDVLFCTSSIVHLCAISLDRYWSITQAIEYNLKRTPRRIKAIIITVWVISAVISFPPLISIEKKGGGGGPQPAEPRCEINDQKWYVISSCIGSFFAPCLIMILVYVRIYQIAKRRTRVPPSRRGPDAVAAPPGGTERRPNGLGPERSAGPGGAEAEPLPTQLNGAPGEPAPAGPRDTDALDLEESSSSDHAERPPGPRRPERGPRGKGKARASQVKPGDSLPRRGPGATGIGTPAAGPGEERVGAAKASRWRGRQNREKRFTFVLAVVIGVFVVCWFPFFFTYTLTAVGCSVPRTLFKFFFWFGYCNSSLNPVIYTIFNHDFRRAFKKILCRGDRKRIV
As to the kind of experiment: radioligand displacement, compound at 10 µM.

The target in test [2] is human fibroblast activation protein (FAP) on human WI-38 fibroblasts (human). As to the kind of experiment: competitive FACS binding on FAP-expressing WI-38 cells against 3 nM Cy5-labeled compound; category A = pIC50 values >8.0.

H1 (h) (human), P35367, sequence (P35367 whole entry): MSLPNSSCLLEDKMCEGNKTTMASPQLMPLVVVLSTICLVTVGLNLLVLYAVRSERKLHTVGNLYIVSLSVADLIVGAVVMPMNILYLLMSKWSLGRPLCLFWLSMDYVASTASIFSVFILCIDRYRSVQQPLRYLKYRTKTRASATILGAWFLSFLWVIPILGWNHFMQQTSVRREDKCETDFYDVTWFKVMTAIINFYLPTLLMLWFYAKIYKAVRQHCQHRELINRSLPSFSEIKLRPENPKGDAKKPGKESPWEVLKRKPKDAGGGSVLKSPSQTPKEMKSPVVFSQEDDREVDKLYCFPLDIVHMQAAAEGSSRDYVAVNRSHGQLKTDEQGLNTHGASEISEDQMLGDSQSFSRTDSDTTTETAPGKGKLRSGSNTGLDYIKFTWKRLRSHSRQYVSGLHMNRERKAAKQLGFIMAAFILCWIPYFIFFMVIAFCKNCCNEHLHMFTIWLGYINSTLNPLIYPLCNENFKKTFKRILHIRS

B1: Hex-[Cys(tMeBn(DOTA-AET))-Pro-Pro-Thr-Gln-Phe-Cys]-OH (3BP-3554) (peptide)
peptide: CPPTQFC
modifications: here or on the partner: N-terminal hexanoyl (Hex); Cys1 and Cys7 cyclised through tMeBn carrying DOTA-AET; free C-terminal acid (-OH)
In the case of B1, the % Inhibition of Specific Binding in the test with M3 (h) (human), P20309 is 1%; with M1 (h) (human), P11229, 8%; with H1 (h) (human), P35367, 4%; with AR (h) (human), P10275, -5%; in the test with ETA (h) (human), P25101, 6%; in test [1], 2%. In test [2], this molecule had a pIC50 Category (FACS) greater than 8 pIC50.

B2: Hex-[Cys(tMeBn(DOTA-PP))-Pro-Pro-Thr-Gln-Phe-Cys]-Asp-NH2 (3BP-3407) (peptide)
peptide: CPPTQFCD
modifications: here or on the partner: N-terminal hexanoyl (Hex); Cys1 and Cys7 cyclised through tMeBn carrying DOTA-PP; C-terminal amide
Turning to B2, the % Inhibition of Specific Binding is 10% with M3 (h) (human), P20309; 6% in the test with M1 (h) (human), P11229; 11% in the test with H1 (h) (human), P35367; 3% with AR (h) (human), P10275; -18% with ETA (h) (human), P25101; -9% in test [1].

The values above are taken from US12427210B2, “Compounds comprising a fibroblast activation protein ligand and use thereof” (priority 2019, dated 2025).
